Data on ten sequences can be found in the DeepSol protein solubility set.

This series is described as follows: soluble on expression in E. coli; label from the status in PepcDB or PDB records.
As to “SATKELDLLADTAIAETEKPLDLGLDDSKTHAFLFTATWCDWYFKDSRPTASQQCISAQNSVNNLTKKFDKFAWQGIISRLWTGPSELANYTKKYQVKHPIAIDVSNSMFHQYGIKEFPSLVVVKNGEVILKTSDFSKPESLAKQLSKL”, the “soluble on expression in E. coli” value is listed as “not soluble”.

As to “MGSDKIHHHHHHMTGRVVTVFGGSGSIGRQLVALLADQGARVRVAVRDTEKAHFLKPLGQLGQIAPISASVSDAASVKRAVEGADQVVNLVGILAESGRRTFQAVHVDGAATVARASAEAGVDALIHMSALGADEASDANYSKTKALGEKAVREAFPAATILRPSVVFGPDDGFFNLFAGLQRLSPVLPYFTRDGFRRGGSGVCGIDLAGSGGPKFQPVYVGDVARAMIAILDTPALRGKTYELGGPRVYSMKEIMDLVVAVTRRRTLVVPLPFWVARLQGRLLEKLPNPPLTSDQVRLMEVDNVCSGALPGLGDLGIEPEAAEAILPTYLSRFRGLDRHMILRGDGRPPKV”, the “soluble on expression in E. coli” value is given as “not soluble”.

In the case of “MNLTNYHSHTLYCDGRAGMEDFIRFAISRGFTSYGISSHAPLPFPTHWTMEWDRMDDYLDEFTRMKEKYASEIELAVGLEIDYLNEDSNPSVRRFQELPLDYRIGSVHLLYNDRDEVVDIDVCAEVFRDIVDQHFGGDLDRVIHLYYDRLLRMVELGGFDILGHADKMHHNAACYRPGLLDESWYDALIHDYFSAVAAKGYIVEINTKALHHLNTFFPNERYFPLLKELGVRVQVNSDSHYPERINSGRPEALAALQKAGFETVTEWHGGKWIEMPLLEHHHHHH”, the “soluble on expression in E. coli” value is listed as “soluble”.

In the case of “MVPPKLKQALELFKSLPKELRSQVLLEYAAKVPPPPPGVELERVHECQTPFFVHADVEGGKVRLYFHVPDEAPTVKAFAGLLREGLEGESPEAVLEVPPGFYRGYGLEEFFTPLRLRGLEAALLRLQAQVRKALTS”, the “soluble on expression in E. coli” value is on record as “soluble”.

As to “MSLKVHHLNESRSQRILWLLEELSLPYEIVQHTRDAKTRLAPPSLTDVHPLGKSPVIQDGALVVIESGAIIDYIIRRHGGGRLAPDAASADYDRYQQWLHYAEGSAMLPLMLNMYVGRLGEAGAPLHPRIQSEIANHLAFVNDSLAGRDYFVGDSLTGADIQMSFVPEVAKAMGKLADYPHMAAWIGRMHARPAWKTALDKGGPYALGAEGHHHHHH”, the “soluble on expression in E. coli” value was “soluble”.

Consider “MSLINAGITTVGEFHYVHHSEQKFDLDQLVIQAAIDAGIRIVLLQTLYERAGFDSPAVHPVQERFIASYEDFIGNLEKLRKEKTHERVQIGVAAHSARAVPFENIKKLFEYASEHKIPFHIHLEEQPKEIFDCQKFIGQKQGPSDLILSKMHLNEYFTAVHSTFTPANNMLLFSKLGANVSICPCTEGYLGDGIPRINESLKISFGTDCNNRICFLEEMRWACFSQQMLNNSRSVCGLSPEKLLLCATIDGARALSLTSKTGSLEVGKYFDAISFSLDSPLLENSLADTLIDSLVLSAGNREISNVFVSGVDRKTEGHHHHHH”, for which the “soluble on expression in E. coli” value is reported as “not soluble”.

For “MTDSPGGVAPASPVEDASDASLGQPEEGAPCQVVLQGAELNGILQAFAPLRTSLLDSLLVMGDRGILIHNTIFGEQVFLPLEHSQFSRYRWRGPTAAFLSLVDQKRSLLSVFRANQYPDLRRVELAITGQAPFRTLVQRIWTTTSDGEAVELASETLMKRELTSFVVLVPQGTPDVQLRLTRPQLTKVLNATGADSATPTTFELGVNGKFSVFTTSTCVTFAAREEGVSSSTSTQVQILSNALTKAGQAAANAKTVYGENTHRTFSVVVDDCSMRAVLRRLQVGGGTLKFFLTTPVPSLCVTATGPNAVSAVFLLKPQK”, the “soluble on expression in E. coli” value is reported as “soluble”.

With “MKPKDFCTAENWAENLSALGYLAGWRFVRMLPLPIARRVFDLGADLASKSGKGMGQLRANLARVVGAENVTQALVKQATRSYARYWLEAFRLPAIARDPELLARLRKGTVGLDLLDESLAAGKGVVLTLPHSGNWDMAGAFLISHHGQFTTVAERVKPERLFEAFVEFRESLGFEVLPLTGGERPPFEKLKERLTSGGIVCLLGERDLRHSGVETTFFGEKTSMPAGPAQLAIETGAALHVVHPWFDDDGWGLSVSDAVTVDNLSDTVQRIAHLFMANITAHPADWHMLQPLWFGDLDPERLKRSREQTNVHKPVALQEDN”, the “soluble on expression in E. coli” value is given as “not soluble”.

In the case of “MPAEPQKSTEAGSVAPEKKLKACCACPETKRVRDACIIENGEEKCGKLIEAHKACMRAAGFNI”, the “soluble on expression in E. coli” value is “soluble”.

For “STSPEIASLSWGQMKVKGSNTTYKDCKVWPGGSRTWDWRETGTEHSPGVQPADVKEVVEKGVQTLVIGRGMSEALKVPSSTVEYLKKHGIDVRVLQTEQAVKEYNALVAQGVRVGGVFHSTC”, the “soluble on expression in E. coli” value was “soluble”.
